The results in this text go back to paper doi:10.1101/836676, “Crosslinking of nucleotide binding domains improves the coupling efficiency of an ABC transporter” (bioRxiv, 2019).

Data set [1] deals with the molecule itself. In words: cross-linking; disulfide cross-linking of purified cysteine variants in detergent: 1 mM Cu(II)-(1,10-phenanthroline)3, 1 hour, 4 °C, 100 mM NaCl, 20 mM Tris pH 7.5, 0.05% DDM, 0.05% C12E8.
Data set [2] concerns the molecule itself. In words: crystal structure; wildtype NaAtm1 purified in DDM with MgAMPPNP; 50 mM ADA pH 7.1, 8-10% PEG 1000, 8-10% PEG 1500, 20 °C.
Data set [3] concerns the molecule itself. In words: crystal structure; NaS526C, NaT525C and NaE523Q with bound ATP; condition of NaA527C without MgCl2; samples with 1 mM ATP and 5 mM EDTA.

Where a chain is given by its changes, count along the chain named. Names may count otherwise.

B1: NaA527C, single-site cysteine variant of NaAtm1 (natural protein, Novosphingobium aromaticivorans)
chain: MPPETATNPKDARHDGWQTLKRFLPYLWPADNAVLRRRVVGAILMVLLGKATTLALPFAYKKAVDAMTLGGGAQPALTVALAFVLAYALGRFSGVLFDNLRNIVFERVGQDATRHLAENVFARLHKLSLRFHLARRTGEVTKVIERGTKSIDTMLYFLLFNIAPTVIELTAVIVIFWLNFGLGLVTATILAVIAYVWTTRTITEWRTHLREKMNRLDGQALARAVDSLLNYETVKYFGAESREEARYASAARAYADAAVKSENSLGLLNIAQALIVNLLMAGAMAWTVYGWSQGKLTVGDLVFVNTYLTQLFRPLDMLGMVYRTIRQGLIDMAEMFRLIDTHIEVADVPNAPALVVNRPSVTFDNVVFGYDRDREILHGLSFEVAAGSRVAIVGPSGAGKSTIARLLFRFYDPWEGRILIDGQDIAHVTQTSLRAALGIVPQDSVLFNDTIGYNIAYGRDGASRAEVDAAAKGAAIADFIARLPQGYDTEVGERGLKLSGGEKQRVAIARTLVKNPPILLFDEATSCLDTRTEQDILSTMRAVASHRTTISIAHRLSTIADSDTILVLDQGRLAEQGSHLDLLRRDGLYAEMWARQAAESAEVSEAAE
modifications: C527 in a disulfide with C527 of the second chain after oxidation
notes: NaAtm1 of Novosphingobium aromaticivorans, GenBank ABD27067, with A527C; Made by site-directed mutagenesis of the C-terminally His6-tagged NaAtm1 construct; also called crosslinked NaA527C; source: Escherichia coli BL21-gold (DE3), purified (NiNTA, oxidation with Cu(II)-(1,10-phenanthroline)3, SEC)
On to B1, for which the binding result in data set [1] is “binds”.

B2: wildtype NaAtm1, bacterial Atm1 homolog from Novosphingobium aromaticivorans (natural protein)
chain: B1 chain with C527A
notes: NaAtm1, ABC exporter (Atm1 homolog) of Novosphingobium aromaticivorans, GenBank ABD27067; natively cysteine-less; homodimer of 133 kDa; Selenomethionine protein (E. coli B834 (DE3)) was used for phasing; also called native transporter; source: Escherichia coli BL21-gold (DE3), purified (NiNTA, SEC) in DDM
With B2, the binding result in data set [2] is recorded as “binds”.

B3: NaE523Q, ATP-hydrolysis deficient variant of NaAtm1 with the E to Q mutation in the Walker B-motif (natural protein, Novosphingobium aromaticivorans)
chain: B1 chain with E523Q, C527A
notes: NaAtm1 of Novosphingobium aromaticivorans, GenBank ABD27067, with E523Q; Made by site-directed mutagenesis of the C-terminally His6-tagged NaAtm1 construct; source: Escherichia coli BL21-gold (DE3), purified (NiNTA, SEC)
Take B3: in data set [3], the binding result is given as “binds”.

B4: NaT525C, single-site cysteine variant of NaAtm1 (natural protein, Novosphingobium aromaticivorans)
chain: B1 chain with T525C, C527A
notes: NaAtm1 of Novosphingobium aromaticivorans, GenBank ABD27067, with T525C; In the cross-linking test C525 forms a disulfide with C525 of the second chain; source: Escherichia coli BL21-gold (DE3), purified (NiNTA, oxidation with Cu(II)-(1,10-phenanthroline)3, SEC)
B4: in data set [1], the binding result was “binds”.

B5: NaS526C, single-site cysteine variant of NaAtm1 (natural protein, Novosphingobium aromaticivorans)
chain: B1 chain with S526C, C527A
modifications: C526 in a disulfide with C526 of the second chain after oxidation
notes: NaAtm1 of Novosphingobium aromaticivorans, GenBank ABD27067, with S526C; Made by site-directed mutagenesis of the C-terminally His6-tagged NaAtm1 construct; source: Escherichia coli BL21-gold (DE3), purified (NiNTA, oxidation with Cu(II)-(1,10-phenanthroline)3, SEC)
For the protein B5, the binding result in data set [1] is “binds”.
